Data published in article PMC8443799, “Structural characterization of KKT4, an unconventional microtubule-binding kinetochore protein”.

T1: KKT4 full-length (KKT4 2-645) (Trypanosoma brucei, UniProt Q580Y8 2-645)
T1 sequence: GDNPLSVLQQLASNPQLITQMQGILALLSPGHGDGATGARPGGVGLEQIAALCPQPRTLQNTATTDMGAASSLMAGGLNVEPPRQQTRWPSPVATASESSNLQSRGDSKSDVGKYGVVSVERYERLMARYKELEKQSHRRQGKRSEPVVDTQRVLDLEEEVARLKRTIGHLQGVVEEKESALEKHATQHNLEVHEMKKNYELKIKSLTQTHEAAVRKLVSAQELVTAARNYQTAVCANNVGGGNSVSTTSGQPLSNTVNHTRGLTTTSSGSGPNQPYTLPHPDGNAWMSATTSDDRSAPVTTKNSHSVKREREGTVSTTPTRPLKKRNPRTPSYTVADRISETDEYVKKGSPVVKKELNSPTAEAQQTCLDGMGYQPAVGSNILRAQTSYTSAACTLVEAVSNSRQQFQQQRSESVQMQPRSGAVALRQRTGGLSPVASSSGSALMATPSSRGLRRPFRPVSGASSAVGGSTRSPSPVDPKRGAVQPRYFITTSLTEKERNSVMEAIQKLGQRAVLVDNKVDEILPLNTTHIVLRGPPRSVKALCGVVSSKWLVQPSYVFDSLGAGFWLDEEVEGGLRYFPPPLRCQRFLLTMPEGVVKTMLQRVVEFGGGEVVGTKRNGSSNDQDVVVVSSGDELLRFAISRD

B1: BA3098 50-bp CIR147 DNA probe (dsDNA)
DNA 1: CAATATGTAAGGTGTTTTGGTGTAAAACACGCATTCTTGCATAACATGCA
DNA 2: TGCATGTTATGCAAGAATGCGTGTTTTACACCAAAACACCTTACATATTG

Target: Taxol-stabilised microtubules (porcine brain tubulin) (UniProt P02550)
Experiment: microtubule co-sedimentation assay
Settings: parent: est. 0.90; read off a plot

Chain of Taxol-stabilised microtubules (porcine brain tubulin) (P02550 whole entry, looked up): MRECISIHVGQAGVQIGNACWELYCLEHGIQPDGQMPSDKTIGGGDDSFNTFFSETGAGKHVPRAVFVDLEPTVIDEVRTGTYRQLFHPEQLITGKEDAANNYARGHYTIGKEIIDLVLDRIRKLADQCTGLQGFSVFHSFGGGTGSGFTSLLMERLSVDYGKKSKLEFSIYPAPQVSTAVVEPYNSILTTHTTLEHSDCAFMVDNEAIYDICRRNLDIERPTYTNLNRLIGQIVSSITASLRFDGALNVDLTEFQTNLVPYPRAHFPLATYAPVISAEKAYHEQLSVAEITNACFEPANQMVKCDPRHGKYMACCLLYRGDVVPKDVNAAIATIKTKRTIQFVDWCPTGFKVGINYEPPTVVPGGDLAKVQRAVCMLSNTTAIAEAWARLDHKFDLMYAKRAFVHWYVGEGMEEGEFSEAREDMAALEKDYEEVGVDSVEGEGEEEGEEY

Molecule | other: fraction bound
KKT4^115–343 (microtubule-binding domain) K115E | 0.67
KKT4^115–343 (microtubule-binding domain) K132E | 0.6
KKT4^115–343 (microtubule-binding domain) K136E | 0.43
KKT4^115–343 (microtubule-binding domain) K144E | 0.44
KKT4^115–343 (microtubule-binding domain) K154E | 0.63
KKT4^115–343 (microtubule-binding domain) K166E | 0.85
KKT4^115–343 (microtubule-binding domain) K179E | 0.77
KKT4^115–343 (microtubule-binding domain) K198E | 0.8
KKT4^115–343 (microtubule-binding domain) K199E | 0.78
KKT4^115–343 (microtubule-binding domain) K204E | 0.84
KKT4^115–343 (microtubule-binding domain) K206E | 0.85
KKT4^115–343 (microtubule-binding domain) K218E | 0.89
KKT4^115–343 (microtubule-binding domain) R123E | 0.23
KKT4^115–343 (microtubule-binding domain) R126D | 0.46
KKT4^115–343 (microtubule-binding domain) R130D | 0.6
KKT4^115–343 (microtubule-binding domain) R140D | 0.48
KKT4^115–343 (microtubule-binding domain) R141D | 0.43
KKT4^115–343 (microtubule-binding domain) R145D | 0.55
KKT4^115–343 (microtubule-binding domain) R164D | 0.73
KKT4^115–343 (microtubule-binding domain) R167D | 0.74
KKT4^115–343 (microtubule-binding domain) R217D | 0.77
KKT4^115–343 (microtubule-binding domain) R230D | 0.6

Target: KKT4^101–352 (Trypanosoma brucei)
Experiment: SEC-MALS; KKT4 fragments; 25 mM HEPES pH 7.5, 150 mM NaCl, 0.5 mM TCEP
Settings: not given

Molecule | stoichiometry N
KKT4^101–352 (domain or fragment) | 2

Target: KKT4^2–114 (Trypanosoma brucei)
Experiment: SEC-MALS; KKT4 2-114 at lower concentrations; 25 mM HEPES pH 7.5, 150 mM NaCl, 0.5 mM TCEP
Settings: not given

Molecule | stoichiometry N
KKT4^2–114 (domain or fragment) | 3

Target: KKT4^2–114 (Trypanosoma brucei)
Experiment: SEC-MALS; KKT4 2-114 at higher concentrations; 25 mM HEPES pH 7.5, 150 mM NaCl, 0.5 mM TCEP
Settings: not given

Molecule | stoichiometry N
KKT4^2–114 (domain or fragment) | 4

Target: SNAP-6HIS-3FLAG-KKT4 (full-length T. brucei KKT4) (Trypanosoma brucei)
Experiment: SEC-MALS; full-length SNAP-6HIS-3FLAG-KKT4 at lower concentrations; 25 mM HEPES pH 7.5, 340 mM NaCl, 0.5 mM TCEP
Settings: not given

Molecule | stoichiometry N
SNAP-6HIS-3FLAG-KKT4 (full-length T. brucei KKT4) (natural protein) | 2

Target: T1, KKT4 full-length (KKT4 2-645)
Experiment: fluorescence anisotropy; 1 nM DNA; 25 mM HEPES pH 7.5, 50 mM NaCl, 0.5 mM TCEP, 1 nM DNA, 30 min at room temperature
Settings: protein: recombinant; tags: SNAP-6HIS-3FLAG (pBA925; from Sf9); chain copies: 2; label: 5' 6-FAM; blunt (only one strand printed; 50-bp dsDNA)

Molecule | Kd [µM]
B1 | 0.011

Target: SNAP-6HIS-3FLAG-KKT4 (full-length T. brucei KKT4) (Trypanosoma brucei)
Experiment: SEC-MALS; full-length SNAP-6HIS-3FLAG-KKT4 at higher concentrations; 25 mM HEPES pH 7.5, 340 mM NaCl, 0.5 mM TCEP; Superose 6 or Superdex 200 10/300
Settings: not given

Molecule | stoichiometry N
SNAP-6HIS-3FLAG-KKT4 (full-length T. brucei KKT4) (natural protein) | 4

Target: Synthetic KKT8 phosphopeptide (BA_peptide_2 (DBS1831-1)) (T. brucei)
Experiment: fluorescence polarisation; fluorescence anisotropy; KKT4 463-645 (from 170 μM, serially diluted 2:3) with 100 nM 5-FAM peptide probe; 25 mM HEPES pH 7.5, 50 mM NaCl, 0.5 mM TCEP; 30 min at room temperature
Settings: not given

Molecule | Kd [µM] | fold decrease of binding affinity against wild-type KKT4 BRCT [fold]
KKT4^463–645 (KKT4 BRCT domain) (domain or fragment) | 30 | –
KKT4^463–645 K543A (domain or fragment) | – | 10
